B1: SCNN1D (parent)
chain: FYRLYQDLETHRLPCTSRCPRPCR

Variants of: B1
Experiment: protein stability index of a GFP-peptide fusion (GPS, HEK-293T) (PSI 1-6); higher = more stable
Details: c terminus: a fixed tail appended
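Note: lentivirally expressed fusions sorted by FACS into six bins by GFP to DsRed ratio, PSI derived from sequencing read proportions per bin multiplied by bin number.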

Variant	protein stability index
FYRLYQDLETERLPCTSRCPRPCR [H11E]	2.31
FYRLYQDLETSRLPCTSRCPRPCR [H11S]	2.21
FYRLYQDLETVRLPCTSRCPRPCR [H11V]	1.98
FYRLYQDLETMRLPCTSRCPRPCR [H11M]	1.74
FYRLYQDLETYRLPCTSRCPRPCR [H11Y]	1.97
FYRLYQDLETWRLPCTSRCPRPCR [H11W]	2.05
FYRLYQDLETFRLPCTSRCPRPCR [H11F]	1.64
FYRLYQDLETDRLPCTSRCPRPCR [H11D]	2.24
FYRLYQDLETCRLPCTSRCPRPCR [H11C]	2.62
FYRLYQDLETRRLPCTSRCPRPCR [H11R]	2.48
FYRLYQDLETQRLPCTSRCPRPCR [H11Q]	2.37
FYRLYQDLETPRLPCTSRCPRPCR [H11P]	2
FYRLYQDLETNRLPCTSRCPRPCR [H11N]	1.93
FYRLYQDLETIRLPCTSRCPRPCR [H11I]	1.39
FYRLYQDLETTRLPCTSRCPRPCR [H11T]	2.79
FYRLYQDLETKRLPCTSRCPRPCR [H11K]	1.96
FYRLYQDLETLRLPCTSRCPRPCR [H11L]	1.95
FYRLYQDLETARLPCTSRCPRPCR [H11A]	2.31
FYRLYMDLETHRLPCTSRCPRPCR [Q6M]	1.91
FYRLYRDLETHRLPCTSRCPRPCR [Q6R]	1.96
FYRLYGDLETHRLPCTSRCPRPCR [Q6G]	1.7
FYRLYFDLETHRLPCTSRCPRPCR [Q6F]	1.79
FYRLYCDLETHRLPCTSRCPRPCR [Q6C]	1.68
FYRLYHDLETHRLPCTSRCPRPCR [Q6H]	1.96

Variant	protein stability index
FYRLYKDLETHRLPCTSRCPRPCR [Q6K]	1.35
FYRLYDDLETHRLPCTSRCPRPCR [Q6D]	2.52
FYRLYSDLETHRLPCTSRCPRPCR [Q6S]	2.23
FYRLYEDLETHRLPCTSRCPRPCR [Q6E]	3.63
FYRLYWDLETHRLPCTSRCPRPCR [Q6W]	3.33
FYRLYYDLETHRLPCTSRCPRPCR [Q6Y]	1.52
FYRLYVDLETHRLPCTSRCPRPCR [Q6V]	1.65
FYRLYPDLETHRLPCTSRCPRPCR [Q6P]	1.38
FYRLYLDLETHRLPCTSRCPRPCR [Q6L]	1.54
FYRLYNDLETHRLPCTSRCPRPCR [Q6N]	2.28
FYRLYADLETHRLPCTSRCPRPCR [Q6A]	2.21
FYRLYIDLETHRLPCTSRCPRPCR [Q6I]	2.31
FYRLYTDLETHRLPCTSRCPRPCR [Q6T]	1.72
FYRLYQFLETHRLPCTSRCPRPCR [D7F]	2.22
FYRLYQQLETHRLPCTSRCPRPCR [D7Q]	1.48
FYRLYQPLETHRLPCTSRCPRPCR [D7P]	2.44
FYRLYQKLETHRLPCTSRCPRPCR [D7K]	2.08
FYRLYQWLETHRLPCTSRCPRPCR [D7W]	3
FYRLYQNLETHRLPCTSRCPRPCR [D7N]	1.89
FYRLYQCLETHRLPCTSRCPRPCR [D7C]	1.72
FYRLYQELETHRLPCTSRCPRPCR [D7E]	2.3
FYRLYQSLETHRLPCTSRCPRPCR [D7S]	1.98
FYRLYQLLETHRLPCTSRCPRPCR [D7L]	1.76
FYRLYQRLETHRLPCTSRCPRPCR [D7R]	2.89

Variant	protein stability index
FYRLYQILETHRLPCTSRCPRPCR [D7I]	3.21
FYRLYQGLETHRLPCTSRCPRPCR [D7G]	2.3
FYRLYQHLETHRLPCTSRCPRPCR [D7H]	1.5
FYRLYQALETHRLPCTSRCPRPCR [D7A]	1.32
FYRLYQTLETHRLPCTSRCPRPCR [D7T]	2.09
FYRLYQYLETHRLPCTSRCPRPCR [D7Y]	1.66
FYRLYQVLETHRLPCTSRCPRPCR [D7V]	1.98
FYRLYQMLETHRLPCTSRCPRPCR [D7M]	1.39
FYRLYQDLEPHRLPCTSRCPRPCR [T10P]	2.03
FYRLYQDLECHRLPCTSRCPRPCR [T10C]	1.94
FYRLYQDLEVHRLPCTSRCPRPCR [T10V]	1.52
FYRLYQDLEYHRLPCTSRCPRPCR [T10Y]	1.6
FYRLYQDLEIHRLPCTSRCPRPCR [T10I]	2.44
FYRLYQDLEDHRLPCTSRCPRPCR [T10D]	2.82
FYRLYQDLEFHRLPCTSRCPRPCR [T10F]	1.21
FYRLYQDLEQHRLPCTSRCPRPCR [T10Q]	2.3
FYRLYQDLELHRLPCTSRCPRPCR [T10L]	2.29
FYRLYQDLENHRLPCTSRCPRPCR [T10N]	2.4
FYRLYQDLEEHRLPCTSRCPRPCR [T10E]	2.31
FYRLYQDLEWHRLPCTSRCPRPCR [T10W]	2.05
FYRLYQDLEMHRLPCTSRCPRPCR [T10M]	1.86
FYRLYQDLERHRLPCTSRCPRPCR [T10R]	2.88
FYRLYQDLESHRLPCTSRCPRPCR [T10S]	1.6
FYRLYQDLEHHRLPCTSRCPRPCR [T10H]	2.34

Variant	protein stability index
FYRLYQDLEAHRLPCTSRCPRPCR [T10A]	2.27
FYRLYQDLEKHRLPCTSRCPRPCR [T10K]	2.47
FYRLYQDLEGHRLPCTSRCPRPCR [T10G]	2.19
FYRLYQDNETHRLPCTSRCPRPCR [L8N]	3.07
FYRLYQDEETHRLPCTSRCPRPCR [L8E]	2.73
FYRLYQDKETHRLPCTSRCPRPCR [L8K]	2.38
FYRLYQDPETHRLPCTSRCPRPCR [L8P]	2.75
FYRLYQDIETHRLPCTSRCPRPCR [L8I]	2.41
FYRLYQDFETHRLPCTSRCPRPCR [L8F]	2.58
FYRLYQDAETHRLPCTSRCPRPCR [L8A]	2.38
FYRLYQDTETHRLPCTSRCPRPCR [L8T]	2.09
FYRLYQDMETHRLPCTSRCPRPCR [L8M]	2.02
FYRLYQDRETHRLPCTSRCPRPCR [L8R]	2.22
FYRLYQDYETHRLPCTSRCPRPCR [L8Y]	1.53
FYRLYQDHETHRLPCTSRCPRPCR [L8H]	2.97
FYRLYQDGETHRLPCTSRCPRPCR [L8G]	2.97
FYRLYQDQETHRLPCTSRCPRPCR [L8Q]	2.11
FYRLYQDSETHRLPCTSRCPRPCR [L8S]	2.47
FYRLYQDDETHRLPCTSRCPRPCR [L8D]	2.79
FYRLYQDVETHRLPCTSRCPRPCR [L8V]	2.16
FYRLYQDWETHRLPCTSRCPRPCR [L8W]	1.7
FYRLYQDCETHRLPCTSRCPRPCR [L8C]	2.08
